From FireProtDB (doi:10.1074/jbc.270.30.17712)
“And” between values parts separate entries of the source, which are not always exact repeats. Identical values can stand only once.

B1: Tryptophan synthase alpha chain, P0A877 (parent)
chain: MERYESLFAQLKERKEGAFVPFVTLGDPGIEQSLKIIDTLIEAGADALELGIPFSDPLADGPTIQNATLRAFAAGVTPAQCFEMLALIRQKHPTIPIGLLMYANLVFNKGIDEFYAQCEKVGVDSVLVADVPVEESAPFRQAALRHNVAPIFICPPNADDDLLRQIASYGRGYTYLLSRAGVTGAENRAALPLNHLVAKLKEYNAAPPLQGFGISAPDQVKAAIDAGAAGAISGSAIVKIIEQHINEPEKMLAALKVFVQPMKAATRS

Variants of: B1
Conditions: Escherichia coli (strain K12); pH 7.8; 23 °C; Urea; Absorbance; Potassium phosphate 10 mM; transition: 3; reversible: yes; structure 1WQ5; whole UniProt chain shown

Row | Variant | ddG of mutation (higher = less stable) | denaturant m value | denaturant midpoint (higher = more stable) | unfolding free energy
1 | MERYESLFAQLKERKEGAFVPFVTLGDPGIEQSLKIIDTLIEAGADALELGIPFSDPLADGPTIQNATLRAFAAGVTPAQCFEMLALIRQKHPTIPIGLLMYANLVFNKGIDEFYAQCEKVGVDSVLVADVPVEESAPWRQAALRHNVAPIFICPPNADDDLLRQIASYGRGYTYLLSRAGVTGAENRAALPLNHLVAKLKEYNAAPPLQGFGISAPDQVKAAIDAGAAGAISGSAIVKIIEQHINEPEKMLAALKVFVQPMKAATRS [F139W] | 2.93 kJ/mol and 2.51 kJ/mol | 2.3 kcal/mol/M and 1.2 kcal/mol/M | 2.46 M and 3.8 M | 23.8 kJ/mol and 19.2 kJ/mol
2 | MERYESLFAQLKERKEGAFVPFVTLGDPGIEQSLKIIDTLIEAGADALELGIPFSDPLADGPTIQNATLRAFAAGVTPAQCFEMLALIRQKHPTIPIGLLMYANLVFNKGIDEFYAQCEKVGVDSVLVADVPVEESAPFRQAALRHNVAPIFICPPNADDDLLRQIASYGRGYTYLLSRAGVTGAENRAALPLNHLVAKLKEYNAAPPLQGFGISAPDQVKAAIDAGAAGAISGSAIVKIIEQHINEPEKMLAALKVWVQPMKAATRS [F258W] | 5.86 kJ/mol and 4.18 kJ/mol | 1.9 kcal/mol/M and 1.2 kcal/mol/M | 2.68 M and 3.58 M | 20.9 kJ/mol and 17.6 kJ/mol
3 | MERYESLFAQLKERKEGAFVPFVTLGDPGIEQSLKIIDTLIEAGADALELGIPFSDPLADGPTIQNATLRAFAAGVTPAQCFEMLALIRQKHPTIPIGLLMYANLVFNKGIDEFYAQCEKVGVDSVLVADVPVEESAPWRQAALRHNVAPIFICPPNADDDLLRQIASYGRGYTYLLSRAGVTGAENRAALPLNHLVAKLKEYNAAPPLQGFGISAPDQVKAAIDAGAAGAISGSAIVKIIEQHINEPEKMLAALKVWVQPMKAATRS [F139W F258W] | 3.35 kJ/mol | 2.1 kcal/mol/M and 1.3 kcal/mol/M | 2.67 M and 3.51 M | 23.4 kJ/mol and 18.4 kJ/mol
